Measured values published in patent publication US20140072613A1, “Compositions and Methods for Treating Cutaneous Scarring” (priority 2012, published 2014).

What was measured:
Assay in all cases: biochemical
Assay type in all cases: biochemical
266 human kinases [1] = biological target: 266 human kinases (Homo sapiens, UniProt P28482); details: MAPK2(h); 100 μM
Method in brief: (§1)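 A filter-capture radiometric assay: phosphorylated cationic substrate binds an anionic membrane and is scintillation-counted, with values referenced to full-activity control.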

266 human kinases [2] = biological target: T1, 266 human kinases (Homo sapiens, UniProt P29320); details: EphA3(h); 100 μM
T1 sequence (P29320 21-983): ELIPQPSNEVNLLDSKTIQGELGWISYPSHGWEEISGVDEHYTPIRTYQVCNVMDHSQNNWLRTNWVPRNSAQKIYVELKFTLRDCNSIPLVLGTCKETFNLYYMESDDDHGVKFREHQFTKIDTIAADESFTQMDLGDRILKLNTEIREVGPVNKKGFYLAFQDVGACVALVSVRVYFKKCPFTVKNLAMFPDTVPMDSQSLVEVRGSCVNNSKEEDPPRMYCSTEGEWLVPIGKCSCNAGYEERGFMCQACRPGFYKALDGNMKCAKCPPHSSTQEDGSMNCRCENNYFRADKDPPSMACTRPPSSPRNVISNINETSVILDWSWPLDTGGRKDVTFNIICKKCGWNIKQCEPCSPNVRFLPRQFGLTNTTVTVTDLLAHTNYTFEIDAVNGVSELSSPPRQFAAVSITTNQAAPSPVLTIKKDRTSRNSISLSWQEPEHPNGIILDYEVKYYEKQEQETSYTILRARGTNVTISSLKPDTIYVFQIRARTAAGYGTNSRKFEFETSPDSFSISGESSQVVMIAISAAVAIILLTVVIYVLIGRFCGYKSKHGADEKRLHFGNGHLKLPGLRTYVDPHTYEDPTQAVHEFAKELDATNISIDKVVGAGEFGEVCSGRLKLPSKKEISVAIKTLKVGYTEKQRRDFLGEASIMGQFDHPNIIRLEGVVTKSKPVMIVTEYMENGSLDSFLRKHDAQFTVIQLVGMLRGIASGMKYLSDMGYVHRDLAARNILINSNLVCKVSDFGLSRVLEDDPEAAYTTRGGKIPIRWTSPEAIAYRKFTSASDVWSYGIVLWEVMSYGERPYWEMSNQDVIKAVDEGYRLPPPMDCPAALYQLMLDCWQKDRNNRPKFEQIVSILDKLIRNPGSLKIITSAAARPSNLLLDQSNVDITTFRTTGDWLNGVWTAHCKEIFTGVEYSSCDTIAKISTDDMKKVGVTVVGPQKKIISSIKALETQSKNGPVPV
Method in brief: as §1

266 human kinases [3] = biological target: 266 human kinases (Homo sapiens, UniProt Q9H2X6); details: HIPK2(h); 100 μM
Sequence of 266 human kinases (Homo sapiens, UniProt Q9H2X6) (Q9H2X6 whole entry): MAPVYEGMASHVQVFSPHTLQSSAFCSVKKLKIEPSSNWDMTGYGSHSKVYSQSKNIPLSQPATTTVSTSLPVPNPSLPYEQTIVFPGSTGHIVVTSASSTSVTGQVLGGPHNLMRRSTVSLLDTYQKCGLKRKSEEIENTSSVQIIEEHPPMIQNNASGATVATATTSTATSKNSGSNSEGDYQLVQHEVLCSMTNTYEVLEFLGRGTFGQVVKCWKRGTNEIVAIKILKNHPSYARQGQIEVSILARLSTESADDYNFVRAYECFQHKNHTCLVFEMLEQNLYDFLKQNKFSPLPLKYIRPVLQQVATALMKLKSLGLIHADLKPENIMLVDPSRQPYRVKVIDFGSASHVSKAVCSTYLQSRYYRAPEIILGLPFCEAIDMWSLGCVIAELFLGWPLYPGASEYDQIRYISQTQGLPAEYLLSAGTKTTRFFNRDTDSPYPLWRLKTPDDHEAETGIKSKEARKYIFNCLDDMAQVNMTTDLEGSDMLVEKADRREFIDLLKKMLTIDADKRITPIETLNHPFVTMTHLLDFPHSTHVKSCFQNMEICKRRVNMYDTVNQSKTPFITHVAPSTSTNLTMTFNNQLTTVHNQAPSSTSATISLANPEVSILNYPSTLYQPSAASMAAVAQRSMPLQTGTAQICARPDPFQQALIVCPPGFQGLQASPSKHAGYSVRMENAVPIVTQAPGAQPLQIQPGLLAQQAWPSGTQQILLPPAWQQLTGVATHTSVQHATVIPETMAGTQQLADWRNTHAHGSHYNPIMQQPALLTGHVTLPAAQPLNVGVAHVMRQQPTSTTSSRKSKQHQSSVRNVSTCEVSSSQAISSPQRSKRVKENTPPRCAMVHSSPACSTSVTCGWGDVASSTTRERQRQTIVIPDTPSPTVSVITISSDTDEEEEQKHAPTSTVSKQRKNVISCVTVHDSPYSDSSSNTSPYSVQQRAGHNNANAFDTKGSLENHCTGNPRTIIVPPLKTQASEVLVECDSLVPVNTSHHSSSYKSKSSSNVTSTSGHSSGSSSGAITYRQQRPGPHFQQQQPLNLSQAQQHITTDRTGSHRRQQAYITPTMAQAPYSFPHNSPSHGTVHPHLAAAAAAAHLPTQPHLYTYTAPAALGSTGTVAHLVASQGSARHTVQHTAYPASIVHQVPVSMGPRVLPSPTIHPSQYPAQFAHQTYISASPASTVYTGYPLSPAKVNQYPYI
Method in brief: as §1

266 human kinases [4] = biological target: 266 human kinases (Homo sapiens, UniProt P53667); details: LIMK1(h); 100 μM
Sequence of 266 human kinases (Homo sapiens, UniProt P53667) (P53667 whole entry): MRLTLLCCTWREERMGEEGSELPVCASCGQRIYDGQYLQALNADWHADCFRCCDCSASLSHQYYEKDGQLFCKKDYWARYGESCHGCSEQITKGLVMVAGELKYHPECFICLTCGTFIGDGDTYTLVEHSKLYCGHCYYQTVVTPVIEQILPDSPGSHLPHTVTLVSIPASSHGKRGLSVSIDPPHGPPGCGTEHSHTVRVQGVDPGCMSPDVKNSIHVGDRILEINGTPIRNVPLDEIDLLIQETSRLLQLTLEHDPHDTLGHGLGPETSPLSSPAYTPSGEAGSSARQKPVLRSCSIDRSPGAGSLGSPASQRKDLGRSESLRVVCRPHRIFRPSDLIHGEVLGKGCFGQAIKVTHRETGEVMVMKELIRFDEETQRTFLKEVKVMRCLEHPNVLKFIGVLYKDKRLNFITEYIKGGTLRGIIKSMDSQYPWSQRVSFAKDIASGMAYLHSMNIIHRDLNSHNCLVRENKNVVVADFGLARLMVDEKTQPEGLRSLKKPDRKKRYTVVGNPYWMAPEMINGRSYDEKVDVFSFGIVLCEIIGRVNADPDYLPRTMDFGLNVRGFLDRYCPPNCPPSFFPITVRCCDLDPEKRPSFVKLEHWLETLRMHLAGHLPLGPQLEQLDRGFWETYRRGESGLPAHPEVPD
Method in brief: as §1

266 human kinases [5] = biological target: 266 human kinases (Homo sapiens, UniProt P04629); details: TrkA(h); 100 μM
Sequence of 266 human kinases (Homo sapiens, UniProt P04629) (P04629 33-796): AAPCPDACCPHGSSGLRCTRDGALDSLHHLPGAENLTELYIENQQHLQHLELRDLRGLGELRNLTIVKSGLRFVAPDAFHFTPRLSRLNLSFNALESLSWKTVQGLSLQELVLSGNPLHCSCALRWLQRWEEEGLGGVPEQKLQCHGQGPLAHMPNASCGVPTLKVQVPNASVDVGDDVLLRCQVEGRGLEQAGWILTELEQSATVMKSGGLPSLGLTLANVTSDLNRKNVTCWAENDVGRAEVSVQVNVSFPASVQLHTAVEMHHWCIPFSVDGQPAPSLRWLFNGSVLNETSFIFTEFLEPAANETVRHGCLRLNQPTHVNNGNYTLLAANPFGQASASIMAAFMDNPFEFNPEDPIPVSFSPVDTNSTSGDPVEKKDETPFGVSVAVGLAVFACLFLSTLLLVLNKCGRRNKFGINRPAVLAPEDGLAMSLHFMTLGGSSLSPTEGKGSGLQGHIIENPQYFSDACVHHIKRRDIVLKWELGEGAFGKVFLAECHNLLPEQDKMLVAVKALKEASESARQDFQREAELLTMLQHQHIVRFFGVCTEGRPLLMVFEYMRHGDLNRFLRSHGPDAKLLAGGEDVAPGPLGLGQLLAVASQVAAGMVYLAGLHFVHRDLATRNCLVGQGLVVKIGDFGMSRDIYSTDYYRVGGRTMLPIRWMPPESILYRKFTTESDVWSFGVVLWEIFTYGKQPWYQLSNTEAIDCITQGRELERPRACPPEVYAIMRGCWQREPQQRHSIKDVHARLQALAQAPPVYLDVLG
Method in brief: as §1

266 human kinases [6] = biological target: T2, 266 human kinases (Homo sapiens, UniProt Q8IWQ3); details: BrSK2(h); 100 μM
T2 sequence (Q8IWQ3 1-736): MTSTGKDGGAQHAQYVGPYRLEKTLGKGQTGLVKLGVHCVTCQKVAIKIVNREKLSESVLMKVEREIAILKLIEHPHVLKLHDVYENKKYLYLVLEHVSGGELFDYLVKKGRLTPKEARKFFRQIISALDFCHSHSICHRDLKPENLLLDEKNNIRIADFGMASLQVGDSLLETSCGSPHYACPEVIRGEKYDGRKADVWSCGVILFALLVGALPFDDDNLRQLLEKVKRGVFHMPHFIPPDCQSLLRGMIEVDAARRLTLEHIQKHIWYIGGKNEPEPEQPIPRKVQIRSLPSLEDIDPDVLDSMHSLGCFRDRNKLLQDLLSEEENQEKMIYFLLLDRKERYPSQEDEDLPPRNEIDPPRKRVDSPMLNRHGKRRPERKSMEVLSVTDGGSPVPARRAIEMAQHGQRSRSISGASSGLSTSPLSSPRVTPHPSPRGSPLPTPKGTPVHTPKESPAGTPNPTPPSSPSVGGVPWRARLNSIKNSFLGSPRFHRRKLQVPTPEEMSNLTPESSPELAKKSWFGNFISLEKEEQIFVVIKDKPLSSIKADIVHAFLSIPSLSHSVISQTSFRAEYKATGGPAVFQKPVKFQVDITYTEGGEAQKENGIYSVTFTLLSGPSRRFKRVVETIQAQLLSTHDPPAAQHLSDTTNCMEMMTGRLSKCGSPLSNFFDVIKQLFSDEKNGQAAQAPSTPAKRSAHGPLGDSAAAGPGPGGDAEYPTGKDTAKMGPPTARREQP
Method in brief: as §1

266 human kinases [7] = biological target: 266 human kinases (Homo sapiens, UniProt P16234, V561D); details: PDGFRα(V561D)(h); 100 μM
Sequence of 266 human kinases (Homo sapiens, UniProt P16234, V561D) (P16234 24-1089 V561D): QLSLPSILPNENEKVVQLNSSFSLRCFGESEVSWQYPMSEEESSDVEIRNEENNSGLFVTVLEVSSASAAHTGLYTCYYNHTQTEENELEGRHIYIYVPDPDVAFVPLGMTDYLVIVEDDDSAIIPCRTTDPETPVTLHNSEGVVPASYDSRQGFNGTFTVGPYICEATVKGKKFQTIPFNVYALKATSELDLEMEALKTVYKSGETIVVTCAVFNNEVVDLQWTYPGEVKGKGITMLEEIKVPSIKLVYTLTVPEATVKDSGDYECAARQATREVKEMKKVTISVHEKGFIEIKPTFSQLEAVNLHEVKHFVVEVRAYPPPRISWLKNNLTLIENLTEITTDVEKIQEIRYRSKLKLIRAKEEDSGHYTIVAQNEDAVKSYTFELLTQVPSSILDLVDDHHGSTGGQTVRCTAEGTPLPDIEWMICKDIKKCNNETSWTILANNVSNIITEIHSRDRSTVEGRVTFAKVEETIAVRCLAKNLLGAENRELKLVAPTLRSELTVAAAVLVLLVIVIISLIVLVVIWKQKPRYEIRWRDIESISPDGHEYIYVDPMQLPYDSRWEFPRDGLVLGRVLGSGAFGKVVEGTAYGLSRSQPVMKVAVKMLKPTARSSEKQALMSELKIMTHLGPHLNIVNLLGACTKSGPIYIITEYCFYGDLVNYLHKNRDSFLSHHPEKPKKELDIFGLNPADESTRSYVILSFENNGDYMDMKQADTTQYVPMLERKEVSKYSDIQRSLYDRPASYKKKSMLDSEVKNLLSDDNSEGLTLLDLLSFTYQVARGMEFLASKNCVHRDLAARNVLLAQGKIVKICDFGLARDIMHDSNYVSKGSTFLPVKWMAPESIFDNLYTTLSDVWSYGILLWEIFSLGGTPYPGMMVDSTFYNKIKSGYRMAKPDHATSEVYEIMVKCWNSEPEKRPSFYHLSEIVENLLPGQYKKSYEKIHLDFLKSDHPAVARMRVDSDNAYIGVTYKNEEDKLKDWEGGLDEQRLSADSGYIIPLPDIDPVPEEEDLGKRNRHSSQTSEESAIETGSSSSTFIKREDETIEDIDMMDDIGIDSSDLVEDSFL
Method in brief: as §1

266 human kinases [8] = biological target: 266 human kinases (Homo sapiens, UniProt P53350); details: Plk1(h); 100 μM
Sequence of 266 human kinases (Homo sapiens, UniProt P53350) (P53350 whole entry): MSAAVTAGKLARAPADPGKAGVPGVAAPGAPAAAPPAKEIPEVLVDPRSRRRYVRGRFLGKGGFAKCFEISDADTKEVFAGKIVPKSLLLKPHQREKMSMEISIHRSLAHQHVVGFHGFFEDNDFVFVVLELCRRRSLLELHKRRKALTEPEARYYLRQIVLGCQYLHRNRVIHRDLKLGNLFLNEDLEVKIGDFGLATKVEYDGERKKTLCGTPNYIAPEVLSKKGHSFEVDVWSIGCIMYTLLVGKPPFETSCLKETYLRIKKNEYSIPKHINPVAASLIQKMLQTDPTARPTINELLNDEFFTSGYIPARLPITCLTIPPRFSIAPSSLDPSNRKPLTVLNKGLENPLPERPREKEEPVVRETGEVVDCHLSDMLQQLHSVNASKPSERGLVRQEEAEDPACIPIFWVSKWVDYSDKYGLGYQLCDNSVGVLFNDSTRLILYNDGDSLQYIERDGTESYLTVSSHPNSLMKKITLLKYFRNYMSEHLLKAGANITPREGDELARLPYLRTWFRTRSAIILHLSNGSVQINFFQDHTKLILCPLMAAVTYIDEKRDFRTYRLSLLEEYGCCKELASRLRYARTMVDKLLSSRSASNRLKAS
Method in brief: as §1

Sequence of 266 human kinases (Homo sapiens, UniProt P28482) (P28482 whole entry): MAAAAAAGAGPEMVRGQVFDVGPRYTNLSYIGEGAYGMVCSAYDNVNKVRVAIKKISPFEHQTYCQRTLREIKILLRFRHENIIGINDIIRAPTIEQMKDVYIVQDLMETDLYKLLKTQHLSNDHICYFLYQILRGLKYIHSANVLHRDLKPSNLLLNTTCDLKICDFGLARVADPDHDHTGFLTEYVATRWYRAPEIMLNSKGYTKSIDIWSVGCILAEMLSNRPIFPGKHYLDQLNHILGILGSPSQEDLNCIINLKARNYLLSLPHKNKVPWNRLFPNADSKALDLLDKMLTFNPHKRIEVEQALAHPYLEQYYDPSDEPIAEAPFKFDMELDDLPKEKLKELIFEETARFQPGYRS

Row | Sequence | % activity (266 human kinases [1]) | % activity (266 human kinases [2]) | % activity (266 human kinases [3]) | % activity (266 human kinases [4]) | % activity (266 human kinases [5]) | % activity (266 human kinases [6]) | % activity (266 human kinases [7]) | % activity (266 human kinases [8])
1 | HRRIKAWLKKIKALARQLGVAA (mammal) [MMI-0500] | 60% | 33% | 38% | 87% | 24% | 84% | 146% | –
2 | YARAAARQARAKALNRQLGVA (mammal) [MMI-0200] | – | – | – | – | – | – | – | 128%
